Laboratory results: patent US20220127350A1 (NUMAB THERAPEUTICS, published 2022)
Values belong to the binder of their own block, whether it stands above or below them.

What was measured:
human IL-17A [1] = molecular target: T1, human IL-17A (human, UniProt Q16552 24-155); assay: SPR (MASS-1), trispecific immobilised, antigens injected sequentially
T1 construct: Recombinant human IL-17A (Peprotech Cat. No. 200-17), disulfide-linked homodimer from E. coli; Biotinylated or RPE-labelled in some assays; also called hIL-17A; IL-17A-RPE (labelled)
Protocol: (§1) All possible sequences of antigen injection were tested resulting in six possible sequences.
(§2) To evaluate concomitant binding of each antigen to trispecific molecules, the binding level relative to the theoretical Rmax was calculated for each injection using the respective ligand and analyte molecular masses and the immobilization level of the trispecific molecules. The average of the maximum binding relative to theoretical Rmax for each antigen was obtained by averaging individual maximum binding relative to theoretical Rmax obtained for the two injections where the respective antigen was injected as first analyte (in the absence of other bound antigens). Next, the binding relative to the theoretical Rmax of each analyte injection was compared to its average maximum binding to calculate the fraction binding obtained in the presence of other bound antigens. […] The binding levels relative to the theoretical Rmax and the average of maximum binding (binding levels in the absence of other antigens) of each antigen were calculated.

human TNFα [2] = molecular target: T2, human TNFα (human, UniProt P01375 77-233); assay: as above
T2 construct: Biotinylated in the Biacore assay
Protocol: as §1, §2

human serum albumin [3] = molecular target: T3, human serum albumin (human, UniProt P02768 25-609); assay: as above
T3 construct: also called HSA
Protocol: as §1, §2

human IL-17A [4] = molecular target: T1, human IL-17A; assay: competitive ELISA, blocking of IL-17A/IL-17RA interaction (summary table)
Protocol: (§3) Finally, Tetramethylbenzidine solution was added to develop the plate for 5 to 10 minutes and the reaction was stopped with 1 M HCl. The plate was read at 450 nm and 570 nm (reference wavelength).

human IL-17A [5] = molecular target: T1, human IL-17A; assay: cell-based or functional assay
human TNFα [6] = molecular target: T2, human TNFα; assay: cell-based or functional assay
human TNFα [7] = molecular target: T2, human TNFα; assay: cell-based or functional assay; remark: listed apart in the source
human TNFα [8] = molecular target: T2, human TNFα; assay: SPR (summary table), affinity to human TNF
Protocol: (§4) In this experiment, the biotinylated antigens were captured using the Biotin-CAPture kit from Biacore. After each analyte injection cycle the CAP sensor chip was regenerated and new antigen was captured. Trispecific molecules were injected as analyte using a dose response multicycle kinetic assay with concentrations of the analyte ranging from 0.35 to 90 nM diluted in running buffer. Obtained sensorgrams were fitted using the 1:1 binding model.

human serum albumin [9] = molecular target: T3, human serum albumin; assay: SPR (summary table), affinity to HSA at pH 5.5
Protocol: (§5) The binding to human serum albumin (HSA) and cynomolgus serum albumin (CSA) was assessed for purified trispecific molecules by running SPR spectroscopy on a MASS-1 device (Sierra Sensors). HSA was directly immobilized on a high capacity amine sensor chip (Sierra Sensors) and trispecific molecules were injected as analyte using a dose response multicycle kinetic assay with concentrations of the analyte ranging from 0.35 to 90 nM diluted either in running buffer at pH5.5 or pH7.5. Obtained sensorgrams were fitted using the 1:1 binding model. Affinity to CSA was assessed in a similar approach using a CSA immobilized sensor chip.

human IL-17A [10] = molecular target: T1, human IL-17A; assay: SPR (Biacore T200), biotinylated antigen captured (Biotin-CAPture), trispecific as analyte;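 also: multicycle dose-response kinetics, analyte at 0.35–90 nM in running buffer, CAP chip regenerated with fresh antigen each cycle, sensorgrams fitted to a 1:1 binding model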
Protocol: as §4

human TNFα [11] = molecular target: T2, human TNFα; assay: as above
Protocol: as §4

human IL-17A [12] = molecular target: T1, human IL-17A; assay: SPR (summary table), affinity to human IL-17, capture setup
Protocol: as §4

human serum albumin [13] = molecular target: T3, human serum albumin; assay: SPR (MASS-1), HSA immobilised, trispecific as analyte, pH 7.4
Protocol: as §5

human IL-17A [14] = molecular target: T1, human IL-17A; assay: competitive ELISA: IL-17RA coated, biotinylated IL-17A preincubated with trispecific molecule
Protocol: as §3

human IL-17A [15] = molecular target: T1, human IL-17A; assay: competitive ELISA: biotinylated human IL-17A preincubated with the trispecific molecule, then binding to coated IL-17RA detected (blocked ligand: IL-17RA) [left panel]
human serum albumin [16] = molecular target: T3, human serum albumin; assay: SPR (MASS-1), HSA immobilised, trispecific as analyte, pH 5.5
Protocol: as §5

human serum albumin [17] = molecular target: T3, human serum albumin; assay: SPR (MASS-1), trispecific immobilised, HSA injected as last analyte
Protocol: as §1, §2

cynomolgus monkey IL-17A [18] = molecular target: T4, cynomolgus monkey IL-17A (Macaca fascicularis (cynomolgus monkey)); assay: SPR (Biacore T200)
T4 construct: also called cyno IL-17A; cyno IL17A
Protocol: (§6) After each analyte injection cycle the CAP sensor chip was regenerated and new antigen was captured. The scFvs were injected as analyte using a dose response multi-cycle kinetic assay with concentrations of the analyte ranging from 0.35 to 90 nM diluted in running buffer. Obtained sensorgrams were fitted using the 1:1 binding model. In addition, the scFvs were analyzed in an alternative SPR assay setup (“direct setup”).

cynomolgus monkey IL-17A [19] = molecular target: T4, cynomolgus monkey IL-17A; assay: SPR (Biacore T200), cynomolgus IL-17A, scFv as analyte
Protocol: as §6

human IL-17A [20] = molecular target: T1, human IL-17A; assay: SPR (Biacore T200), capture setup: biotinylated IL-17A captured, scFv as analyte
Protocol: as §6

human IL-17A [21] = molecular target: T1, human IL-17A; assay: cell-based or functional assay; remark: listed apart in the source
human IL-17A [22] = molecular target: T1, human IL-17A; assay: competitive ELISA: IL-17RA coated, biotinylated IL-17A preincubated with scFv
Protocol: Finally, Tetramethylbenzidin solution (KPL, Cat. No. 53-00-00) was added to develop the plate for 5 to 10 minutes and the reaction was stopped with 1 M HCl. The plate was read using a microtiter plate reader (Infinity reader M200 Pro, Tecan) at a wavelength of 450 nm and 570 nm (reference wavelength).

human IL-17A [23] = molecular target: T1, human IL-17A; assay: SPR (Biacore T200), direct setup: IL-17A amine-coupled on CM5, scFv as analyte
Protocol: as §6

antigen binding relative to average maximum binding (human IL-17A [1]): ≥ 70% | antigen binding relative to average maximum binding (human TNFα [2]): ≥ 70% | antigen binding relative to average maximum binding (human serum albumin [3]): ≥ 70% | rel. IC50 (IC50, secukinumab/IC50, test sample, ng/ml) (human IL-17A [4]): 2.2 | rel. IC50 to secukinumab (ng/ml) in HT-29 assay, +HSA (human IL-17A [5]): 11.8 | rel. IC50 to secukinumab (ng/ml) in HT-29 assay, -HSA (human IL-17A [5]): 2.4 | rel. IC50 to A13 (nM) in HT-29 assay, +HSA (human TNFα [6]): 0.5 | rel. IC50 to A13 (nM) in HT-29 assay, -HSA (human TNFα [6]): 0.2 | rel. IC50 in L929 assay (IC50, A13/IC50, test sample, nM) (human TNFα [7]): 0.003 | Kd (human TNFα [8]): < 0.0232 nM | Kd (human serum albumin [9]): 0.947 nM | Kd (human IL-17A [10]): 1.53 nM | koff (human IL-17A [10]): 9.04e-05 s⁻¹ | kon (human IL-17A [10]): 59100 M⁻¹ s⁻¹ | Kd (human TNFα [11]): < 0.0232 nM | koff (human TNFα [11]): < 1e-06 s⁻¹ | kon (human TNFα [11]): 43100 M⁻¹ s⁻¹ | Kd (human IL-17A [12]): 1.53 nM | Kd (human serum albumin [13]): 1.37 nM | koff (human serum albumin [13]): 0.000557 s⁻¹ | kon (human serum albumin [13]): 406000 M⁻¹ s⁻¹ | rel. IC50 to secukinumab (IC50, secukinumab/IC50, test sample, ng/ml) (human IL-17A [14]): 2.2 | IC50 (read off the curve) (human IL-17A [15]): ~9 ng/mL | Kd (human serum albumin [16]): 0.947 nM | koff (human serum albumin [16]): 0.00059 s⁻¹ | kon (human serum albumin [16]): 623000 M⁻¹ s⁻¹
B1: A3 (trispecific tribody, Fab-(scFv)2) (other)
light: DIQMTQSPSSLSASVGDRVTITCQSSESVYSNNQLSWYQQKPGQPPKLLIYDASDLASGVPSRFSGSGSGTDFTLTISSLQPEDFATYYCAGGFSSSSDTAFGGGTKLTVLGRTRTVAAPSVFIFPPSDEQLKSGTASVVCLLNNFYPREAKVQWKVDNALQSGNSQESVTEQDSKDSTYSLSSTLTLSKADYEKHKVYACEVTHQGLSSPVTKSFNRGECGGGGSGGGGSDIQMTQSPSSLSASVGDRVTINCQASESISSWLAWYQQKPGKRPKLLIYKASTLASGVPSRFSGSGSGTDYTLTISSLQPEDFATYYCQGYYLDSSVDDNVFGGGTKLTVLGGGGGSGGGGSGGGGSGGGGSEVQLVESGGGLVQPGGSLRLSCAASGIDFSTYGISWVRQAPGKGLEWIAYIYPDYGITDYASWVNGRFTISLDNAQNTVYLQMNSLRAEDTAVYYCARSGSYYSRGWGAHYFNLWGQGTLVTVSS
heavy: EVQLVESGGGLVQPGGSLRLSCAASGFSLSSNAMGWVRQAPGKGLEYIGIISVGGFTYYASWAKGRFTISRDNSKNTVYLQMNSLRAEDTATYFCARDRHGGDSSGAFYLWGQGTLVTVSSASTKGPSVFPLAPSSKSTSGGTAALGCLVKDYFPEPVTVSWNSGALTSGVHTFPAVLQSSGLYSLSSVVTVPSSSLGTQTYICNVNHKPSNTKVDKKVEPKSCGGGGSGGGGSDIQMTQSPSSLSASVGDRVTITCQASQTINYWLAWYQQKPGKAPKLLIYRASTLASGVPSRFSGSGSGTDFTLTISSLQPEDFATYYCQNYYYSTSRSYGFGGGTKLTVLGGGGGSGGGGSGGGGSGGGGSEVQLVESGGGLVQPGGSLRLSCAASGFSFSSDYWMCWVRQAPGKGLEWIGCIYAGDVDDTDYASWARGRFTISRDNSKNTVYLQMNSLRAEDTAVYYCARVDGFDITYFDLWGQGTLVTVSS
notes: Trispecific anti-IL-17A x TNFα x HSA tribody; Expressed in CHO-S
IC50 in L929 assay, cell viability (human TNFα [7]): 4.5 nM

antigen binding relative to average maximum binding (human IL-17A [1]): ≥ 70% | antigen binding relative to average maximum binding (human TNFα [2]): ≥ 70% | antigen binding relative to average maximum binding (human serum albumin [3]): ≥ 70% | rel. IC50 (IC50, secukinumab/IC50, test sample, ng/ml) (human IL-17A [4]): 6.3 | rel. IC50 to secukinumab (ng/ml) in HT-29 assay, +HSA (human IL-17A [5]): 6 | rel. IC50 to secukinumab (ng/ml) in HT-29 assay, -HSA (human IL-17A [5]): 7.1 | rel. IC50 to A13 (nM) in HT-29 assay, +HSA (human TNFα [6]): 0.3 | rel. IC50 to A13 (nM) in HT-29 assay, -HSA (human TNFα [6]): 0.6 | rel. IC50 in L929 assay (IC50, A13/IC50, test sample, nM) (human TNFα [7]): 0.2 | Kd (human TNFα [8]): 0.257 nM | Kd (human serum albumin [9]): 1.67 nM | relative binding level compared to average maximum binding (human serum albumin [17]): ~70% | Kd (human IL-17A [10]): 0.337 nM | koff (human IL-17A [10]): 7.23e-05 s⁻¹ | kon (human IL-17A [10]): 215000 M⁻¹ s⁻¹ | Kd (human TNFα [11]): 0.257 nM | koff (human TNFα [11]): 2.33e-05 s⁻¹ | kon (human TNFα [11]): 90800 M⁻¹ s⁻¹ | Kd (human IL-17A [12]): 0.337 nM | Kd (human serum albumin [13]): 4.79 nM | koff (human serum albumin [13]): 0.000417 s⁻¹ | kon (human serum albumin [13]): 87200 M⁻¹ s⁻¹ | rel. IC50 to secukinumab (IC50, secukinumab/IC50, test sample, ng/ml) (human IL-17A [14]): 6.3 | IC50 (read off the curve) (human IL-17A [15]): ~3 ng/mL | Kd (human serum albumin [16]): 1.67 nM | koff (human serum albumin [16]): 0.000308 s⁻¹ | kon (human serum albumin [16]): 185000 M⁻¹ s⁻¹
B2: A4 (trispecific tribody, Fab-(scFv)2) (other)
light: DIQMTQSPSSLSASVGDRVTITCQASQTINYWLAWYQQKPGKAPKLLIYRASTLASGVPSRFSGSGSGTDFTLTISSLQPEDFATYYCQNYYYSTSRSYGFGGGTKLTVLGRTRTVAAPSVFIFPPSDEQLKSGTASVVCLLNNFYPREAKVQWKVDNALQSGNSQESVTEQDSKDSTYSLSSTLTLSKADYEKHKVYACEVTHQGLSSPVTKSFNRGECGGGGSGGGGSDIQMTQSPSSLSASVGDRVTINCQASESISSWLAWYQQKPGKRPKLLIYKASTLASGVPSRFSGSGSGTDYTLTISSLQPEDFATYYCQGYYLDSSVDDNVFGGGTKLTVLGGGGGSGGGGSGGGGSGGGGSEVQLVESGGGLVQPGGSLRLSCAASGIDFSTYGISWVRQAPGKGLEWIAYIYPDYGITDYASWVNGRFTISLDNAQNTVYLQMNSLRAEDTAVYYCARSGSYYSRGWGAHYFNLWGQGTLVTVSS
heavy: EVQLVESGGGLVQPGGSLRLSCAASGFSFSSDYWMCWVRQAPGKGLEWIGCIYAGDVDDTDYASWARGRFTISRDNSKNTVYLQMNSLRAEDTAVYYCARVDGFDITYFDLWGQGTLVTVSSASTKGPSVFPLAPSSKSTSGGTAALGCLVKDYFPEPVTVSWNSGALTSGVHTFPAVLQSSGLYSLSSVVTVPSSSLGTQTYICNVNHKPSNTKVDKKVEPKSCGGGGSGGGGSDIQMTQSPSSLSASVGDRVTITCQSSESVYSNNQLSWYQQKPGQPPKLLIYDASDLASGVPSRFSGSGSGTDFTLTISSLQPEDFATYYCAGGFSSSSDTAFGGGTKLTVLGGGGGSGGGGSGGGGSGGGGSEVQLVESGGGLVQPGGSLRLSCAASGFSLSSNAMGWVRQAPGKGLEYIGIISVGGFTYYASWAKGRFTISRDNSKNTVYLQMNSLRAEDTATYFCARDRHGGDSSGAFYLWGQGTLVTVSS
notes: Trispecific tribody
IC50 in L929 assay, cell viability (human TNFα [7]): 0.08 nM

KD, cyno/KD, human (cynomolgus monkey IL-17A [18]): 1.69 | Kd (cynomolgus monkey IL-17A [19]): 5.19 nM | koff (cynomolgus monkey IL-17A [19]): 0.000868 s⁻¹ | kon (cynomolgus monkey IL-17A [19]): 167000 M⁻¹ s⁻¹ | Kd (human IL-17A [20]): 3.07 nM | koff (human IL-17A [20]): 0.000697 s⁻¹ | kon (human IL-17A [20]): 227000 M⁻¹ s⁻¹ | IC50 in HT-29 assay, GRO-α secretion (human IL-17A [21]): 0.1 ng/mL | IC50 (human IL-17A [22]): 1.6 ng/mL | Kd (human IL-17A [23]): 0.0551 nM | koff (human IL-17A [23]): 5.92e-05 s⁻¹ | kon (human IL-17A [23]): 1.08e+06 M⁻¹ s⁻¹
B3: A2 (humanized anti-IL-17A scFv, STR graft of 27-07-G02) (scFv)
scFv: DIQMTQSPSSLSASVGDRVTITCQASQTINYWLAWYQQKPGKPPKLLIYRASTLASGVPSRFSGSGSGTDFTLTISSLQPEDFATYYCQNYYYSTSRSYGFGGGTKLTVLGGGGGSGGGGSGGGGSGGGGSEVQLVESGGGLVKPEGSLRLSCAASGFSFSSDYWMCWVRQAPGKGLEWIACIYAGDVDDTDYASWARGRFTISRDNSKNTVYLQMNSLRAEDTAVYYCARVDGFDITYFDLWGQGTLVTVSS
notes: VL-linker-VH; also called 27-07-G02-sc02
